B1: Azoarcus group I ribozyme (parent)
chain: GUGCCUUGCGCCGGGAAACCACGCAAGGGAUGGUGUCAAAUUCGGCGAAACCUAAGCGCCCGCCCGGGCGUAUGGCAACGCCGAGCCAAGCUUCGGCGCCUGCGCCGAUGAAGGUGUAGAGACUAGACGGCACCCACCUAAGGCAAACGCUAUGGUGAAGGCAUAGUCCAGGGAGUGGCGAAAGUCACACAAACCGG

Variants of B1 are the subject of the data set. Description: reverse-splicing fitness (ratio to wild type); higher = more active; in vitro selection; Mg2+ level not given. A digest of the protocol:
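An in vitro group I ribozyme library with randomized positions was T7-transcribed and gel-purified. In triplicate, 10 pmol RNA in EPPS pH 7.5 was reacted with 50 pmoles of a 30-nt RNA substrate for 1 h at 37 °C across several added MgCl2 levels (1–48 mM), then stopped with EDTA. Products were reverse transcribed from a substrate-complementary primer, PCR-amplified and sequenced (HiSeq 4000). Fitness is a variant's read proportion after selection over that before, normalised to wild type.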
In the case of C82A A111C A120C A145C C150U C169U U176G, the reverse-splicing fitness stood at 0.00738.

As to C82G A120G A145C C150U C169A U176A, the reverse-splicing fitness turned out to be 0.0126.

For the variant C82U A111U A120C A145U C150G C169G U176G, the reverse-splicing fitness turned out to be 0.0048.

For the variant A111C A120G A145C U176A, the reverse-splicing fitness came out at 0.0323.

Take C82A A111C A145U C150U U176C: the reverse-splicing fitness was found to be 0.0623.

With A120U A145U C169G U176G, the reverse-splicing fitness is 0.00322.

Regarding C82U A120U A145G C150U U176G, the reverse-splicing fitness worked out at 0.0067.

In the case of C82A A120C A145C C169G U176G, the reverse-splicing fitness turned out to be 0.00536.

In the case of A111C A145U C150G C169A U176G, the reverse-splicing fitness was found to be 0.007.

C82G A111U A145G C169A U176C: the reverse-splicing fitness worked out at 0.0263.

With C82A A120C A145G C150A C169G U176A, the reverse-splicing fitness is 0.0191.

Consider C82U A111C A120C A145G C150G C169U, for which the reverse-splicing fitness is 0.00816.

For A111U A120C A145U C150U C169G U176G, the reverse-splicing fitness stood at 0.00445.

On to C82G A111C A120U C150A U176C, for which the reverse-splicing fitness was 0.00693.

Consider C82A A111U A120G A145U C150U U176A, for which the reverse-splicing fitness is 0.0102.

Consider C82A A111C A120G A145U C150A C169A U176C, for which the reverse-splicing fitness came out at 0.0113.

For A111U A120G A145G C150G C169U U176C, the reverse-splicing fitness stood at 0.015.

For the variant C82A A111G A120U A145C C150A U176G, the reverse-splicing fitness stood at 0.00207.

C82G A111G A145U C150U: the reverse-splicing fitness came out at 0.261.

As for C82A A111G A145G C169A U176A, the reverse-splicing fitness was determined as 0.0201.

Take C82A A111U A120U C150G C169G U176A: the reverse-splicing fitness came to 0.00475.

As for C82G A111G A120G A145U C150G C169A U176C, the reverse-splicing fitness came out at 0.0133.

On to C82G A120G A145G C150U C169G U176G, for which the reverse-splicing fitness was determined as 0.00428.

Regarding A111G A120U A145C C150U C169A U176C, the reverse-splicing fitness was 0.00228.

For the variant C82G A111G C150G C169A U176G, the reverse-splicing fitness came to 0.00786.

Take C82A A145U C150U C169G: the reverse-splicing fitness was 0.00961.

Take A111C A120C C150U C169G U176A: the reverse-splicing fitness is 0.0124.

Consider C82A A111U A145U C169A U176A, for which the reverse-splicing fitness was found to be 0.012.

C82G A111C A120G C150G C169U U176G: the reverse-splicing fitness amounted to 0.00589.

For C82A A111U A120C A145U C150A C169A, the reverse-splicing fitness was found to be 0.0109.

For A120U A145U C150G U176G, the reverse-splicing fitness came out at 0.018.

For A111U A120U A145G C150U C169G U176G, the reverse-splicing fitness was 0.0024.

As to A111U A120U A145G C150U C169G U176A, the reverse-splicing fitness amounted to 0.00769.

Take C82A A120G A145G C150A C169G U176G: the reverse-splicing fitness worked out at 0.00523.

For the variant C82U A111G A120U C150A C169U U176G, the reverse-splicing fitness was 0.00202.

Take C82U A111C C150G U176G: the reverse-splicing fitness was 0.00363.

Regarding C82G A120C A145G C150U C169U U176G, the reverse-splicing fitness is 0.00474.

Consider C82A A111C A120U A145C C150U U176A, for which the reverse-splicing fitness was 0.00424.

For C82U A111C A120C A145G U176G, the reverse-splicing fitness came out at 0.00588.

C82U A111C A120C A145G U176C: the reverse-splicing fitness came to 0.0243.

For C82G A111C A120U A145C C150U C169A U176G, the reverse-splicing fitness is 0.0025.

Consider C82A A111U A120C C150U U176A, for which the reverse-splicing fitness stood at 0.0125.

For C82U A111C A120C A145C C150G C169G U176A, the reverse-splicing fitness came to 0.00861.

On to C82G A120U A145G C150G C169A U176A, for which the reverse-splicing fitness is 0.012.

Regarding C82G A120G C150U, the reverse-splicing fitness came to 0.0196.

As for C82G A111G A120U A145G C150A, the reverse-splicing fitness worked out at 0.0116.

As to C82U A145G U176C, the reverse-splicing fitness turned out to be 0.44.

For the variant C82A A111C A120G A145C C169U U176C, the reverse-splicing fitness was 0.00921.

Regarding A111U A120U A145C U176C, the reverse-splicing fitness stood at 0.168.

Turning to C82G A111U A120C A145C C150A, the reverse-splicing fitness was determined as 0.0109.

Take C82A A111G A120U A145U C150U U176A: the reverse-splicing fitness came to 0.00864.

For A111G A120C A145G C150U C169G U176A, the reverse-splicing fitness was determined as 0.0195.

As to C82U A111G A120C C150G C169A U176A, the reverse-splicing fitness amounted to 0.00865.

With A111C A145C C150U C169U U176G, the reverse-splicing fitness is 0.00818.

On to C82U A120G C150A C169U U176A, for which the reverse-splicing fitness came out at 0.0211.

With A111G A120C A145U C150A C169G U176G, the reverse-splicing fitness amounted to 0.00393.

Take C82U A111G A120G A145G C150U C169A U176A: the reverse-splicing fitness was found to be 0.0143.

As for C82U A111G A120C A145G C150A U176G, the reverse-splicing fitness is 0.00727.

C82U A111U A120C C150G C169G U176C: the reverse-splicing fitness turned out to be 0.00458.

As for C82U A111G A120U A145U C169G, the reverse-splicing fitness turned out to be 0.00313.

Consider C82U A111U A120G A145U C150A C169A U176A, for which the reverse-splicing fitness was 0.0137.

In the case of A111C A120U C150G U176A, the reverse-splicing fitness worked out at 0.0127.

For the variant C82U A111U A145U C150U C169G, the reverse-splicing fitness turned out to be 0.00898.

For C82A A111U A120U A145G C150G C169A U176C, the reverse-splicing fitness worked out at 0.0099.

As for C82U A120U U176G, the reverse-splicing fitness was 0.0137.

Regarding C82U A111G A145C C150A C169G U176C, the reverse-splicing fitness turned out to be 0.0112.

A111G A120G C150U C169U U176A: the reverse-splicing fitness was found to be 0.0545.

Regarding C82G A111U A120G A145G C150A C169G, the reverse-splicing fitness turned out to be 0.00903.

As for A111G A120C A145U C150A C169U, the reverse-splicing fitness amounted to 0.033.

As for A111C A120U A145G C150U, the reverse-splicing fitness was 0.549.

As for C82A A111G A120U A145U C150U C169G U176C, the reverse-splicing fitness turned out to be 0.00298.

On to C82A C150A U176C, for which the reverse-splicing fitness stood at 0.0632.

For C82G A111C A120C C150G C169U U176A, the reverse-splicing fitness was 0.00786.

Consider A120U A145G C150G C169G U176G, for which the reverse-splicing fitness was determined as 0.00354.

For the variant C82A A111U A120C A145U C150A C169A U176G, the reverse-splicing fitness was found to be 0.00919.

Take C82G A111G A145C C150U C169U U176G: the reverse-splicing fitness was 0.0062.

As to C82G A111U A120G A145C C150A U176G, the reverse-splicing fitness is 0.00582.

For the variant A111U A120C A145G C150A U176A, the reverse-splicing fitness worked out at 0.0518.

As to C82A A111U A145C C150U, the reverse-splicing fitness amounted to 0.0537.

With C82A A111G A120U A145G C150A C169A U176C, the reverse-splicing fitness is 0.0046.

With C82A A111C A120C A145U C150G U176A, the reverse-splicing fitness was found to be 0.00604.

For the variant C82A A111C A120G C150A C169A U176A, the reverse-splicing fitness is 0.0182.

C82G A111U A120U A145C C169G U176C: the reverse-splicing fitness amounted to 0.00219.

A111C A120G A145C C150G C169U U176A: the reverse-splicing fitness stood at 0.0111.

Values taken from the RNAGym collection of RNA variant scans (doi:10.1093/molbev/msab373).
